For experiment [1], the target named is T1, S. aureus LukF (Staphylococcus aureus). The experiment is described as follows: method not stated at Table 8; BLI (Octet) is described in Example 4. On the technique in general: Biolayer interferometry detects binding as a change in optical thickness at a sensor tip.
Experiment [2] concerns the target T2, LukSF (Staphylococcus aureus). The experiment is described as follows: cell-based or functional assay.
For experiment [3], the target named is T3, HlgAB (Staphylococcus aureus, UniProt P0A074 30-309).
T3 sequence 1: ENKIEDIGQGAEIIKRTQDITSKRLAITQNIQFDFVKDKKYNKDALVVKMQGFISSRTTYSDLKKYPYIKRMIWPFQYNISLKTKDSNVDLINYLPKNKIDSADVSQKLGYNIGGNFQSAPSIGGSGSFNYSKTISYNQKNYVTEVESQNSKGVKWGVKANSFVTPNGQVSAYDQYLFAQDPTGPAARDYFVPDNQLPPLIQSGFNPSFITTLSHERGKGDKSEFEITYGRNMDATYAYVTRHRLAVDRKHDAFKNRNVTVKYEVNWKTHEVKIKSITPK
T3 sequence 2: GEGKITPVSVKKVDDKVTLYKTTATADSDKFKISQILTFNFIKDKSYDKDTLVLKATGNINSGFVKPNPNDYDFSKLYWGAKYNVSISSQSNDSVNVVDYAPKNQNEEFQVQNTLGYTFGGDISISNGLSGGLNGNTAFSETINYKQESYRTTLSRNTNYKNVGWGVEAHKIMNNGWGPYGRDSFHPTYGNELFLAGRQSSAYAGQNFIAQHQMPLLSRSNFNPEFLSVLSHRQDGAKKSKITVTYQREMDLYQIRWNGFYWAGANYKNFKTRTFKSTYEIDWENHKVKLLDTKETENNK
The experiment is described as follows: cell-based or functional assay.

Experiment [4] deals with T2, LukSF. The experiment can be described thus: cell-based or functional assay. This is another data set of the same source.
Experiment [5] deals with T3, HlgAB. The experiment is described as follows: cell-based or functional assay. This is another data set of the same source.
Experiment [6] has as its target T2, LukSF. The experiment can be described thus: cell-based or functional assay. This is another data set of the same source.
The target of experiment [7] is T3, HlgAB. The experiment is described as follows: cell-based or functional assay. This is another data set of the same source.
Experiment [8] addresses T1, S. aureus LukF. The experiment is described as follows: BLI (Octet384), antibody captured on anti-human IgG Fc biosensors, antigen in solution; light-stressed sample.
Experiment [9] concerns the target T4, S. aureus LukD (Staphylococcus aureus, UniProt Q2FXB1 27-327).
T4 sequence: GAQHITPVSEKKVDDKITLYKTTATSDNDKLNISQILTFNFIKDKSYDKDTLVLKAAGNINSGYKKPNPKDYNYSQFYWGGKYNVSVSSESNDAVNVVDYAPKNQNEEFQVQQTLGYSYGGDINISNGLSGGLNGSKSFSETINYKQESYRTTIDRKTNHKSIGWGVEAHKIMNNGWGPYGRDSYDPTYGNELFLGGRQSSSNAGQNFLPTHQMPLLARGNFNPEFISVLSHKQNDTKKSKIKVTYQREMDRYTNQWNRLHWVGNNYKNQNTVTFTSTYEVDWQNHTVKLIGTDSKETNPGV
The experiment is described as above.

For experiment [10], the target named is T5, S. aureus HlgB (Staphylococcus aureus, UniProt P0A075 27-325).
T5 construct: also called HIgB
T5 sequence: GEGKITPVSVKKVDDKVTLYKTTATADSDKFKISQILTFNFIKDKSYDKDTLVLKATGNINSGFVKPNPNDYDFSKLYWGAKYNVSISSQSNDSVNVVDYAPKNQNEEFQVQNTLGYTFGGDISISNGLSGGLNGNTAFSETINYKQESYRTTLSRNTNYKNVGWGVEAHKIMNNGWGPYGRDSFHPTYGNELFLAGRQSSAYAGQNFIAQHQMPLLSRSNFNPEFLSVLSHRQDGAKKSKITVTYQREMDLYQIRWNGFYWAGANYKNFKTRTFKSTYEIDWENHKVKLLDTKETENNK
Described as above.

Experiment [11] deals with T1, S. aureus LukF. The experiment can be described thus: BLI (Octet384), antibody captured on anti-human IgG Fc biosensors, antigen in solution; dark sample.
In experiment [12] the target is T4, S. aureus LukD. Described as above.
For experiment [13], the target named is T5, S. aureus HlgB. The description is as above.
In experiment [14] the target is T2, LukSF. The experiment is described as follows: cell-based or functional assay. The source holds these as a separate data set.
For another experiment, the target named is LukED (Staphylococcus aureus, UniProt O54081 29-314). The experiment is described as follows: cell-based or functional assay.
The target of another experiment is T6, HlgCB (Staphylococcus aureus, UniProt Q07227 30-315).
T6 sequence 1: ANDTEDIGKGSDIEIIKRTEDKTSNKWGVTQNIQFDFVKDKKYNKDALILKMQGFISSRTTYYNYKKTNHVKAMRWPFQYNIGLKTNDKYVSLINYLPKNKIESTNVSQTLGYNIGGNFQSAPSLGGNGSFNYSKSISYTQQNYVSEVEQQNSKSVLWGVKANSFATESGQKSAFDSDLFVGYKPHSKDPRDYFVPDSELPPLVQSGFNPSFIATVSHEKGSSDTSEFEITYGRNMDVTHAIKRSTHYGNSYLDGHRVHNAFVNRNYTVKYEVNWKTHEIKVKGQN
T6 sequence 2: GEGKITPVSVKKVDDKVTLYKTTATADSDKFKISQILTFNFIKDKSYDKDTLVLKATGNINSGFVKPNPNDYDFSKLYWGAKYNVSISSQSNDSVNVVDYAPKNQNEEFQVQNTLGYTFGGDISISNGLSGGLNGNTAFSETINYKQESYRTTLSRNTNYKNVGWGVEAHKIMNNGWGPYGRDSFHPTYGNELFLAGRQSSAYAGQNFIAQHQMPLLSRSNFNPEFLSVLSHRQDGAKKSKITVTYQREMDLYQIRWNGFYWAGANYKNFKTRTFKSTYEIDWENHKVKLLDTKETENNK
The experiment can be described thus: cell-based or functional assay.

B1: SAN481-SY-YTE (antibody, V domains shown)
VH: QLQLVESGGGAVQPGRSLKLSCAASGFNFSTYAMHWVRQAPGRGLEWVAVTSFDGSNEYYIDSVKGRFTISRDNTKNTLYLQMTGLRVEDTALYFCARDEYTGGWYSVGYWGQGTLVTVSS
VL: QSVLTQPPSASGTPGQRVTISCSGSSYNIGSNYVYWYQQFPGTAPKLLISRSIQRPSGVPDRFSGSKSVTSASLAISGLRSEDEADYYCAAWDDSLRAWVFGGGTKLTVLG
notes: also called QD2; SAN481VL26S32Y-YTE
What is called Kd is the constant that tells how readily two partners part at equilibrium. Read a high Kd as a looser complex. Regarding B1, the affinity with S. aureus LukF [1], expressed as Kd, was 0.101 nM. For the same molecule, the “IC50 (LukSF) HL-60” value with LukSF [2] amounted to 0.18 µg/mL. In the experiment with HlgAB [3], the “IC50 (HIgAB) HL-60” value stood at 0.55 µg/mL. In the experiment with LukSF [4], the “IC50 (LukSF) HL-60; Dark sample” value stood at 0.221 µg/mL and the “IC50 (LukSF) HL-60; Light sample” value came out at 0.241 µg/mL. Besides, in the experiment with HlgAB [5], the “IC50 (HIgAB) HL-60; Dark sample” value came to 0.721 µg/mL and the “IC50 (HIgAB) HL-60; Light sample” value was determined as 0.736 µg/mL. Besides, in the experiment with LukSF [6], the “IC50 Fold loss vs. WT (LukSF)” value worked out at 1.14 fold and the “IC50 for LukSF” value worked out at 0.183 µg/mL. Moreover, in the experiment with HlgAB [7], the “IC50 Fold loss vs. WT (HIgAB)” value came to 0.97 fold and the “IC50 for HIgAB” value was determined as 0.551 µg/mL.

B2: SAN481-T-YTE (antibody, V domains shown)
VH: QLQLVESGGGAVQPGRSLKLSCAASGFTFSTYAMHWVRQAPGRGLEWVAVTSFDGSNEYYIDSVKGRFTISRDNTKNTLYLQMTGLRVEDTALYFCARDEYTGGWYSVGYWGQGTLVTVSS
VL: QSVLTQPPSASGTPGQRVTISCSGNSYNIGSNSVYWYQQFPGTAPKLLISRSIQRPSGVPDRFSGSKSVTSASLAISGLRSEDEADYYCAAWDDSLRAWVFGGGTKLTVLG
notes: also called QD3; SAN481VH28T-YTE
As for B2, the Kd with S. aureus LukF [1] was less than 0.001 nM. Moreover, in the experiment with LukSF [2], the “IC50 (LukSF) HL-60” value turned out to be 0.17 µg/mL. In addition, the “IC50 (HIgAB) HL-60” value in the experiment with HlgAB [3] came out at 0.54 µg/mL. In addition, in the experiment with LukSF [4], the “IC50 (LukSF) HL-60; Dark sample” value stood at 0.193 µg/mL and the “IC50 (LukSF) HL-60; Light sample” value stood at 0.205 µg/mL. For the same molecule, in the experiment with HlgAB [5], the “IC50 (HIgAB) HL-60; Dark sample” value was 0.707 µg/mL and the “IC50 (HIgAB) HL-60; Light sample” value came to 0.624 µg/mL. In the experiment with LukSF [6], the “IC50 Fold loss vs. WT (LukSF)” value worked out at 1.04 fold and the “IC50 for LukSF” value is 0.166 µg/mL. Also, in the experiment with HlgAB [7], the “IC50 Fold loss vs. WT (HIgAB)” value worked out at 0.948 fold and the “IC50 for HIgAB” value came to 0.539 µg/mL.

B3: SAN481-SYT-YTE (antibody, V domains shown)
VH: QLQLVESGGGAVQPGRSLKLSCAASGFTFSTYAMHWVRQAPGRGLEWVAVTSFDGSNEYYIDSVKGRFTISRDNTKNTLYLQMTGLRVEDTALYFCARDEYTGGWYSVGYWGQGTLVTVSS
VL: QSVLTQPPSASGTPGQRVTISCSGSSYNIGSNYVYWYQQFPGTAPKLLISRSIQRPSGVPDRFSGSKSVTSASLAISGLRSEDEADYYCAAWDDSLRAWVFGGGTKLTVLG
notes: also called QD5
By koff is commonly meant the first-order rate constant of dissociation. In general, kon refers to the rate constant with which the complex forms. A higher kon goes with faster complex formation. Turning to B3, the Kd with S. aureus LukF [1] was 0.101 nM; in the experiment with S. aureus LukF [8] it was less than 0.001 nM; with S. aureus LukD [9], less than 0.001 nM; with S. aureus HlgB [10] it was less than 0.001 nM; in the experiment with S. aureus LukF [11], 0.101 nM; with S. aureus LukD [12] it was less than 0.001 nM. In addition, in the experiment with S. aureus HlgB [13], the Kd was 0.0191 nM. Besides, the koff in the experiment with S. aureus LukF [8] is less than 1e-07 s⁻¹; with S. aureus LukD [9], less than 1e-07 s⁻¹; in the experiment with S. aureus HlgB [10], less than 1e-07 s⁻¹; with S. aureus LukF [11], 3.69e-05 s⁻¹; with S. aureus LukD [12], less than 1e-07 s⁻¹; with S. aureus HlgB [13], 4.88e-06 s⁻¹. In addition, the kon was 257000 M⁻¹ s⁻¹ in the experiment with S. aureus LukF [8]; 263000 M⁻¹ s⁻¹ with S. aureus LukD [9]; 244000 M⁻¹ s⁻¹ with S. aureus HlgB [10]; 365000 M⁻¹ s⁻¹ in the experiment with S. aureus LukF [11]; 279000 M⁻¹ s⁻¹ in the experiment with S. aureus LukD [12]; 255000 M⁻¹ s⁻¹ in the experiment with S. aureus HlgB [13]. Further, the “IC50 (LukSF) HL-60” value with LukSF [2] came out at 0.16 µg/mL. For the same molecule, the “IC50 (HIgAB) HL-60” value in the experiment with HlgAB [3] was 0.54 µg/mL. The “IC50 (LukSF) HL-60; Dark sample” value with LukSF [4] was found to be 0.163 µg/mL. Besides, the “IC50 (LukSF) HL-60; Light sample” value with LukSF [4] is 0.184 µg/mL. For the same molecule, the “IC50 (HIgAB) HL-60; Dark sample” value with HlgAB [5] was 0.576 µg/mL. The “IC50 (HIgAB) HL-60; Light sample” value with HlgAB [5] amounted to 0.645 µg/mL. Further, the “IC50 Fold loss vs. WT (LukSF)” value in the experiment with LukSF [6] amounted to 1.01 fold. The “IC50 for LukSF” value in the experiment with LukSF [6] came to 0.162 µg/mL. Besides, the “IC50 Fold loss vs. WT (HIgAB)” value with HlgAB [7] came to 0.951 fold. Further, the “IC50 for HIgAB” value with HlgAB [7] worked out at 0.54 µg/mL. Also, the “IC50 (read off the curve)” value with LukSF [14] is approximately 0.4 µg/mL; with LukED, approximately 4 µg/mL; with HlgCB, approximately 2 µg/mL.

The record behind these values is US20200109190A1 (AstraZeneca / MedImmune, published 2020).
